Experimental data: patent US20240166745A1 (Eli Lilly, published 2024)
Substitutions are numbered along the chain they refer to. Blank lines part the entries; values can stand above or below the binder they belong to.

Assays:
Human PD-1 ECD-His [1] = target: T1, Human PD-1 ECD-His (human, UniProt Q15116 25-167); experiment: SPR (Biacore T200), antibody captured on PrismA chip, ECD as analyte, 37° C.
T1 construct: Soluble analyte in SPR; the entry includes the His tag
Method: (§1) A Biacore® T200 (Cytiva, Marlborough, MA) was used to measure the binding kinetics and affinities of the LAG-3 antibody to the LAG-3 soluble extracellular domain (ECD) and the bispecific antibody to soluble LAG-3-ECD and PD-1-ECD (human: Sino Biologicals, Cat #10377-H08H; cynomolgus: Sino Biologicals, Cat #90311-C08H) by surface plasmon resonance. Samples were diluted in HBS-EP+ (10 mM Hepes, 150 mM NaCl, 3 mM EDTA, 0.05% Tween-20, pH 7.6) (Teknova Cat #H8022) with 5 g/L of BSA (Jackson ImmunoResearch Cat #001-000-161) running buffer. PrismA Series S Sensor chip (Cat #29650263) is purchased from Cytiva.
(§2) Binding was evaluated using multi-cycle kinetics by an antibody capture method. Each cycle was performed at either 37° C. or 25° C. at a flow rate of 10 μL/min for antibody capture to the PrismA chip and 100 μL/min for analyte association (with 120 sec contact time) and dissociation (900 sec). Each cycle consisted of the following steps: injection of bispecific antibody at 1 μg/mL in HBS-EP+ targeting Rmax values of 125 RU (LAG-3 arm), 294 RU (PD-1 arm) and 63 RU (LAG-3 antibody) on flow cell, injection of analyte in HBS-EP+(concentration range of 62.5 nM to 0.25 nM by two-fold serial dilution for both human PD-1-ECD-His (SEQ ID NO: 40) and human LAG-3-His (SEQ ID NO: 42) followed by 900-second dissociation phase, and regeneration using 10 μL of 10 mM glycine hydrochloride, pH 1.5 over a 60-second contact time utilizing a 10 μL/min flow rate. All analyte concentrations were determined utilizing monomeric molecular weight (MW) values. Association rates (kₒₙ) and dissociation rates (koff) for LAG-3-ECD and PD-1-ECD were evaluated using double referencing by flow-cell one reference subtraction in addition to 0 nM blank subtraction and fit to “1:1 (Langmuir) binding” model in the BIAevaluation software version 4.1. The dissociation constant (KD) was calculated from the binding kinetics according to the relationship KD=Koff/Kₒₙ. Stoichiometry=[RUₘₐₓ/RUcaptured]/[MWanalyte/MWantibody] where MWAntibodyA is 150 kDa. Values are reported as mean±standard deviation.

Cynomolgus PD-1-ECD [2] = target: T2, Cynomolgus PD-1-ECD (cynomolgus, UniProt B0LAJ3 25-170); experiment: as above
T2 construct: commercial protein; also called cynomolgus PD-1-ECD (Sino Biologicals, Cat #90311-C08H); not shown: C-terminal polyhistidine tag of the vendor product (Sino Biological 90311-C08H)
Method: as §1, §2

Human LAG-3 ECD-His [3] = target: T3, Human LAG-3 ECD-His (human, UniProt P18627 23-449); experiment: SPR (Biacore T200), antibody captured on PrismA chip, ECD as analyte, 37° C., steady-state equilibrium model (SS); 37° C., steady-state equilibrium model
T3 construct: Soluble analyte in SPR; the entry includes linker and His tag; also called human LAG-3-His
T3 sequence: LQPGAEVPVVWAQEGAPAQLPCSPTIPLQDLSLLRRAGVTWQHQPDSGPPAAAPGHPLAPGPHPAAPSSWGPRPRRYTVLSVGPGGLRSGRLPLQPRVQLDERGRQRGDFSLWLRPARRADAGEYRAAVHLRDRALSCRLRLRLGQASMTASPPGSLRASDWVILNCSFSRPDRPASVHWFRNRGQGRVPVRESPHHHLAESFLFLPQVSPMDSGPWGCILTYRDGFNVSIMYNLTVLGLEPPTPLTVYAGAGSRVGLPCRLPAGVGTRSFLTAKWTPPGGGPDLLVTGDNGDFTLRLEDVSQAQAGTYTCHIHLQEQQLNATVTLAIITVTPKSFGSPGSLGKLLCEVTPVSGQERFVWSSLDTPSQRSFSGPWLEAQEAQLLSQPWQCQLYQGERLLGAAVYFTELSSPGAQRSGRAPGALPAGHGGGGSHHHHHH

Human PD-1 ECD-His [4] = target: T1, Human PD-1 ECD-His; experiment: SPR (Biacore T200), antibody captured on PrismA chip, ECD as analyte; temperature unclear: the 37° C. label is printed only at r14, by the order of Table 3a probably 37° C.
Method: as §1, §2

Cynomolgus PD-1-ECD [5] = target: T2, Cynomolgus PD-1-ECD; experiment: as above
Method: as §1, §2

Human LAG-3 ECD-His [6] = target: T3, Human LAG-3 ECD-His; experiment: SPR (Biacore T200), antibody captured on PrismA chip, ECD as analyte, 37° C.
Method: as §1, §2

T2 sequence (B0LAJ3 entry or part of it limits assumed): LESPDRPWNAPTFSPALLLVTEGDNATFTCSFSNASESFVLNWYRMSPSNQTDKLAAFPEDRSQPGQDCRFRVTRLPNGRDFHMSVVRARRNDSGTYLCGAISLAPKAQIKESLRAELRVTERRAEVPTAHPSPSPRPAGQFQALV
T1 sequence (Q15116 other isoform, or with tags, fused parts or gaps): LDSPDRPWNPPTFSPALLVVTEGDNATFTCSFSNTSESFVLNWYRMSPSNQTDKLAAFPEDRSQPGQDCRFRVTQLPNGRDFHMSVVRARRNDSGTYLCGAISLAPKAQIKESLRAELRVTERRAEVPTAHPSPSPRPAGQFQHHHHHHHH

- Kd (Human PD-1 ECD-His [1]): 0.66 nM
- koff (Human PD-1 ECD-His [1]): 0.0017 s⁻¹
- kon (Human PD-1 ECD-His [1]): 2.5e+06 M⁻¹ s⁻¹
- Kd (Cynomolgus PD-1-ECD [2]): 3.5 nM
- koff (Cynomolgus PD-1-ECD [2]): 0.0087 s⁻¹
- kon (Cynomolgus PD-1-ECD [2]): 2.5e+06 M⁻¹ s⁻¹
- Kd (Human LAG-3 ECD-His [3]): 5.7 nM
B1: Antibody A (bispecific antibody, human IgG1, kappa, lambda)
heavy 1: not shown
light 1: DIVMTQTPLSLPVTPGEPASISCRSSQSLLDSAEGSTYLDWFLRKPGDSPQLLIYTLSYRASGVPDRFSGSGSGTDFTLKISRVEAEDVGVYYCMQRVEFPYTFGQGTKVEIKRTVAAPSVFIFPPSKEQLKSGTASVVCLLNNFYPREAKVQWKVDNALQSGNSQESVTEQDSKDSTYSLSSTLTLSKADYEKHKVYACEVTHQGLSSPVTKSFNRGEC
heavy 2: QVQLVQSGAEVKKPGASVKVSCKVSGYSLSKYDMSWVRKAPGKGLEWMGIIYTSGYTDYAQEFQGRVTMTEDTSTDTAYMELSSLRSEDTAVYYCATGNPYYTNGFNSWGQGTLVTVSSASTKGPSVFPLAPSSKSTSGGTAALGCLVKDYFPEPVTVSWNSGALTSGVATGPAVLQSSGLYSLSSVVTVPSSSLGTQTYICNVNHKPSNTKVDKRVEPKSCDKTHTCPPCPAPELLGGPSVFLFPPKPKDTLMISRTPEVTCVVVDVSHEDPEVKFNWYVDGVEVHNAKTKPREEQYNSTYRVVSVLTVLHQDWLNGKEYKCKVSNKALPAPIEKTISKAKGQPREPQVYTLPPSREEMTDNQVSLTCLVKGFYPSDIAVEWESNGQPENNYKTTPPVLMSDGSFFLASKLTVDKSRWQQGNVFSCSVMHEALHNHYTQKSLSLSPGK
light 2: RIQMTQSPSSLSASVGDRVTITCQASQSPNNLLAWYQDKPGKAPKLLIYGASDLPSGVPSRFSGSGSGTDFTLTISSLQPEDFATYYCQNNYYVGPVSYAFGGGTKVEIKGQPKAAPSVTLFPPSSEELQANKATLVCYISDFYPGAVTVAWKADSSPVKAGVETTTPSKQSNNKYAAWSYLSLTPEQWKSHRSYSCQVTHEGSTVEKTVAPTEC
notes: IgG-like bispecific with one LAG-3 arm and one PD-1 arm; also called human LAG-3/human PD-1 dual agonist bispecific antibody

- Kd (Human PD-1 ECD-His [4]): 0.65 nM
- koff (Human PD-1 ECD-His [4]): 0.0015 s⁻¹
- Kd (Cynomolgus PD-1-ECD [5]): 3.1 nM
- koff (Cynomolgus PD-1-ECD [5]): 0.0088 s⁻¹
- kon (Cynomolgus PD-1-ECD [5]): 2.8e+06 M⁻¹ s⁻¹
- Kd (Human LAG-3 ECD-His [6]): 6.1 nM
- koff (Human LAG-3 ECD-His [6]): 0.34 s⁻¹
- kon (Human LAG-3 ECD-His [6]): 5.5e+07 M⁻¹ s⁻¹
B2: Antibody B (bispecific antibody, human IgG1, kappa, lambda)
heavy 1: not shown
light 1: B1 light 1
heavy 2: B1 heavy 2 with K324A
light 2: B1 light 2
notes: also called human LAG-3/human PD-1 dual agonist bispecific antibody
